From patent US20110312897A1, “CATHEPSIN L PROTEOLYTICALLY PROCESSES HISTONE H3 DURING MOUSE EMBRYONIC STEM CELL DIFFERENTIATION” (THE ROCKEFELLER UNIVERSITY, priority 2008, published 2011)

B1: Cathepsin K: recombinant Cathepsin K (Calbiochem Cat. No. 342001) (protein, UniProt P43235 115-329, looked up)
Cathepsin K: APDSVDYRKKGYVTPVKNQGQCGSCWAFSSVGALEGQLKKKTGKLLNLSPQNLVDCVSENDGCGGGYMTNAFQYVQKNRGIDSEDAYPYVGQEESCMYNPTGKAAKCRGYREIPEGNEKALKRAVARVGPVSVAIDASLTSFQFYSKGVYYDESCNSDNLNHAVLAVGYGIQKGNKHWIIKNSWGENWGNKGYILMARNKNNACGIANLASFPKM
B2: recombinant mouse Cathepsin L: recombinant mouse Cathepsin L enzyme (R&D Systems, # 1515-CY-010) (protein)
chain: TPKFDQTFSAEWHQWKSTHRRLYGTNEEEWRRAIWEKNMRMIQLHNGEYSNGQHGFSMEMNAFGDMTNEEFRQVVNGYRHQKHKKGRLFQEPLMLKIPKSVDWREKGCVTPVKNQGQCGSCWAFSASGCLEGQMFLKTGKLISLSEQNLVDCSHAQGNQGCNGGLMDFAFQYIKENGGLDSEESYPYEAKDGSCKYRAEFAVANDTGFVDIPQQEKALMKAVATVGPISVAMDASHPSLQFYSSGIYYEPNCSSKNLDHGVLLVGYGYEGTDSNKNKYWLVKNSWGSEWGMEGYIKIAKDRDNHCGLATAASYPVVN

Test system: rH3-HIS
Experiment: H3 cleavage assay with recombinant cathepsins
Type: biochemical, mouse
Procedure: Extracts were incubated in buffer (10 mM HEPES, 10 mM KCl, 1.5 mM MgCl2, 0.34M sucrose, 10% glycerol, 5 mM β-mercaptoethanol, all final) with 0.1 μg/μl rH3-HIS (purified from E. coli) and incubated at 37° C. for 1-3 hours. Reactions were stopped by addition of 5×SDS sample buffer and boiling; results were analyzed by immunoblotting with HIS-HRP and/or H3.cs1 antibody. For MS analysis, reactions were quenched by addition of 0.1% (final) TFA. rCathepsin L (R&D Systems, # 1515-CY-010), rCathepsin B (R&D Systems Cat No. BAF965), and rCathepsin K (Calbiochem Cat. No. 342001) were purchased from commercial sources and tested in the assay with rH3-HIS.
To further validate the identification of Cathepsin L as an H3 protease, recombinant mouse Cathepsin L enzyme was tested in the H3 cleavage assay (FIG. 5). […] To further characterize the sites of proteolytic cleavage, the reaction products of rCathepsin L and rH3-HIS were analyzed by MS. […] Also observed in both reactions were five of the six complementary N-terminal peptides generated by rCathepsin L cleavage of H3 (left), and their abundances correlated, as expected, with that of their C-terminal counterparts. […] In addition, the relative abundances of the in vivo H3 cleavage sites and those produced by Cathepsin L in vitro are highly correlative. […] Taken together, the above data support the conclusion that Cathepsin L is capable of generating all of the histone H3.2 fragments observed at day three following induction of ESC differentiation by retinoic acid.
Other cathepsin family members were then tested in the H3 cleavage assay. rCathepsin B, one of the most abundant lysosomal proteases, and rCathepsin K, which is reported to have a significant preference for leucine in the P2 position of its substrates much like Cathepsin L, were chosen to be tested first (Cathepsin S also shares this preference but was not found to have significant expression in our ESC model). Following pre-activation the recombinant enzymes, Cathepsins B, K, and L were incubated with rH3-HIS at both pH 5.5. and pH 7.5, and the reactions were then analyzed by immunoblotting with both HIS and H3.cs1 antibodies.

[1] = pre-activated enzymes, pH 5.5 and pH 7.5

| Molecule | H3.cs1 epitope production [1] | cleavage of recombinant histone H3 (pH 5.5 and pH 7.4) | generation of epitope recognized by H3.cs1 antibody (pH 5.5 and pH 7.4) | rH3-HIS cleavage pattern [1] |
| --- | --- | --- | --- | --- |
| B1 | less abundant |  |  |  |
| B2 |  | able to cleave recombinant histone H3 | created the specific epitope | cleaves rH3-HIS robustly |
